Experimental data published in patent publication US20240272171A1, “Methods for Identification of Exchangeable MHC Binding Peptides and Methods of Use Thereof” (PhenomeX Inc., priority 2020, published 2024).

Target: HLA-A*02:01 MHC Class I complex (recombinant, biotinylated) (human)
Assay: displacement of the FITC-labelled in-place peptide from 1 uM HLA-A*02:01; competitor: incoming peptide [..] at 20 uM with 10 mM GlyCha, 4 h at room temperature; FITC on streptavidin capture beads by flow cytometry

- exchange efficiency: 1
Binder: GMGQKDSYV (modifications not checked) [EP3 … (SEQ ID NO: 1), FITC-labelled in-place peptide GMGQ{Lys(FITC)}DSYV]
